The results in this text go back to publication PMC10643903 (Journal of Innate Immunity, 2022).

For assay [1], the target named is human C6 FIM1-2 fragment (residues 766–934) with an N-terminal 10xHis-tag (human, UniProt P13671 766-934). Description: BLI. (Biolayer interferometry detects binding as a change in optical thickness at a sensor tip.)
Assay [2] deals with recombinant full-length human C6 with a C-terminal 10xHis-tag (human, UniProt P13671 22-934). Description: BLI.
Assay [3] deals with biotinylated AVI-tagged full-length human C6 (Homo sapiens, UniProt P13671, biotin on the AVI-tag (BirA ligase)). Kind of assay: BLI.
Chain of biotinylated AVI-tagged full-length human C6 (P13671 22-934): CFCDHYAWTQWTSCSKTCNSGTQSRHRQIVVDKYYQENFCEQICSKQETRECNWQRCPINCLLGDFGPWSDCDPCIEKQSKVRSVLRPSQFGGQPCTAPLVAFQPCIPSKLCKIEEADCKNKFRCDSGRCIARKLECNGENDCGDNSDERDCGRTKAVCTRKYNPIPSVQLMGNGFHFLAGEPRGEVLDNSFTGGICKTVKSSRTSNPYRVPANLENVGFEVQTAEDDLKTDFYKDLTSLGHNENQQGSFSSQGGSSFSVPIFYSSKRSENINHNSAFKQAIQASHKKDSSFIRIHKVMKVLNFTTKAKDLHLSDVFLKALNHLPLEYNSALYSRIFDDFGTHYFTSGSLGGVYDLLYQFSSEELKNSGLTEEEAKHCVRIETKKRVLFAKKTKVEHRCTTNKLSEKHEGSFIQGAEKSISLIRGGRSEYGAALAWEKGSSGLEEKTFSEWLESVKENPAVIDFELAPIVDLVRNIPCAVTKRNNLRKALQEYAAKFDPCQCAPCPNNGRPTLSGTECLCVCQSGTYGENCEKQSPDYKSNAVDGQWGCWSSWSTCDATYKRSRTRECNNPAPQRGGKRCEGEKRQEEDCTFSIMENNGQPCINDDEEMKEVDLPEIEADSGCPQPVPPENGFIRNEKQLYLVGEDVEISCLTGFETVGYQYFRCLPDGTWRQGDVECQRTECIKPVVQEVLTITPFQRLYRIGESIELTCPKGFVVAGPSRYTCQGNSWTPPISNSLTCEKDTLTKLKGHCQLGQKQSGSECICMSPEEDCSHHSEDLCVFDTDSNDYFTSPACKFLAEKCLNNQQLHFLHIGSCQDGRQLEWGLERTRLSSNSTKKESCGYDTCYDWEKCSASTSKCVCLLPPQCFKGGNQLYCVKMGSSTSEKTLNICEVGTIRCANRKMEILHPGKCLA
The target in the next assay is T1, dog C6 FIM1-2 fragment (Canis lupus familiaris).
T1 chain: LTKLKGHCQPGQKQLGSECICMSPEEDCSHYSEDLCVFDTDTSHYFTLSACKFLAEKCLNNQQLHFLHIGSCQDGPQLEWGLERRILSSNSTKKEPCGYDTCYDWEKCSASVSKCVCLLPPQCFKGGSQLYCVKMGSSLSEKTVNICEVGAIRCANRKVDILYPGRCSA
Description: BLI.

For assay [4], the target named is human C6 FIM1-2 fragment (residues 766–934) with an N-terminal 10xHis-tag (human, UniProt P13671). Description: BLI.
Chain of human C6 FIM1-2 fragment (residues 766–934) with an N-terminal 10xHis-tag (human, UniProt P13671) (P13671 766-934): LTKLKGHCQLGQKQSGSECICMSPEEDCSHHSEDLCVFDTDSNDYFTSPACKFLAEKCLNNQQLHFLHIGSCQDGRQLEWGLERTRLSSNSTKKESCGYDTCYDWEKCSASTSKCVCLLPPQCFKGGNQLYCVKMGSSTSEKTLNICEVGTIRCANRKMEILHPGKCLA
Assay [5] has as its target Macaca C6 FIM1-2 fragment (Macaca fascicularis (entry of printed …, UniProt A0A2K5W3S5)). Description: BLI.
The target of assay [6] is pig (Sus scrofa) C6 FIM1-2 fragment (Sus scrofa, UniProt A0SEH0). Description: BLI.
Assay [7] has as its target C6∆FIM1-2 (1–762) with a C-terminal His-tag (human, UniProt P13671). Description: SEC.

Chain of human C6 FIM1-2 fragment (residues 766–934) with an N-terminal 10xHis-tag (human, UniProt P13671 766-934) (P13671 766-934): as above
Chain of recombinant full-length human C6 with a C-terminal 10xHis-tag (P13671 22-934): as the sequence (P13671 22-934) above
Chain of C6∆FIM1-2 (1–762) with a C-terminal His-tag (P13671 22-762): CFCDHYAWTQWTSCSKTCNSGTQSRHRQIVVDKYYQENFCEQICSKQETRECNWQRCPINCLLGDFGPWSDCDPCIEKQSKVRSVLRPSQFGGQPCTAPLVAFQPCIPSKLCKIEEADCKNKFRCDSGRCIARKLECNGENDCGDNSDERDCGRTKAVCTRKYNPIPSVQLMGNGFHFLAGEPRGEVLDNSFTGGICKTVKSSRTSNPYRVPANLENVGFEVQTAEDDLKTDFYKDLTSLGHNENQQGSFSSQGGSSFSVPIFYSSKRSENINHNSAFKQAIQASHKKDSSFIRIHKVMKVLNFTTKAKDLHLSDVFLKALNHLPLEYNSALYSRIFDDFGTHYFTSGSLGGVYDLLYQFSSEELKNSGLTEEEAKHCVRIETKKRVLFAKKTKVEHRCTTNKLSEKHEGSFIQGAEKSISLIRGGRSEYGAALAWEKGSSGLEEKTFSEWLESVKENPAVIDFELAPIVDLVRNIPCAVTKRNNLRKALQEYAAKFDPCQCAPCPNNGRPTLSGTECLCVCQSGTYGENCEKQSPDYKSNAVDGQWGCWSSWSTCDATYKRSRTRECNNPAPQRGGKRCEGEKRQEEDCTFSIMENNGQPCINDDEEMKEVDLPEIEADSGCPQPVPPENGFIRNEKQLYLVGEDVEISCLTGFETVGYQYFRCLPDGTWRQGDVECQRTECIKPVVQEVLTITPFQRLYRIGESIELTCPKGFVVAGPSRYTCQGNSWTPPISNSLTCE

B1: human C5 C345c domain (residues 1528–1676) (domain or fragment, UniProt P01031 1528-1676, looked up)
chain: VEADCGQMQEELDLTISAETRKQTACKPEIAYAYKVSITSITVENVFVKYKATLLDIYKTGEAVAEKDSEITFIKKVTCTNAELVKGRQYLIMGKEALQIKYNFSFRYIYPLDSLTWIEYWPRDTTCSSCQAFLANLDEFAEDIFLNGC
B1: the figures for the Kd in assay [1] and in assay [2] were 5 nM and 10 to 20 nM, respectively.

B2: CP010 Fab (Fab, V domains shown)
VH: EVQLVESDGGLVQPGGSLKLSCAASGFTFSDYYMAWVRQGPGKGLEWVATINYDGSSTYYRESVKGRFTISRDNAKNTLYLQMNSLRAEDTATYYCARPSTEALFAYWGHGTLVTVSS
VL: DVVLTQTPSTLSVTPGQPASISCRSSQSLLNDVGNTYLYWYLQKPGQSPQLLIYLVSDLGSGVPNRFSGSGSGTDFTLKISRVEAEDVGIYYCMQASHAPYTFGQGTNLEIK
Turning to B2, the Kd (commonly the free concentration of one partner at which half of the binding sites on the other are occupied at equilibrium, for simple one-to-one binding) was 0.3 nM in assay [3]; around 5 nM with dog C6 FIM1-2 fragment; 2.8 nM in assay [4]; around 5 nM in assay [5]; around 5 nM in assay [6].

B3: CP010, fully humanized version of 7E5 with a human IgG4 S228P constant region (antibody, V domains shown)
VH: B2 VH
VL: B2 VL
With B3, the binding result in assay [7] is “no binding”.
